Assay results as given in the supplement of paper PMC9112550, “Optimization of the antimicrobial peptide Bac7 by deep mutational scanning” (BMC Biology, 2022).

Tested on: Escherichia coli TOP10
Assay: shrunken log2 fold change of peptide-encoding DNA abundance (4.5 h post-induction vs induction); higher = less antimicrobial activity (less host growth inhibition)
Settings: time post-induction: 4.5 h; library: site-saturation at positions 5, 18, 19, 20
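Further: peptides expressed intracellularly from a pBAD plasmid library in pooled LB shake-flask culture, induced with 0.3% L-arabinose, DNA abundance read by NGS, three biological replicates, DESeq2 with apeglm shrinkage.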

Row | Sequence | shrunken log2 fold change
1 | RRIRMRPPRLPRPRPRPFKKPRP | 0.0258
2 | RRIRMRPPRLPRPRPRPFMCPRP | -0.171
3 | RRIRMRPPRLPRPRPRPFQAPRP | 0.242
4 | RRIRMRPPRLPRPRPRPFTEPRP | 0.0426
5 | RRIRMRPPRLPRPRPRPFVDPRP | -0.338
6 | RRIRMRPPRLPRPRPRPFVIPRP | -0.197
7 | RRIRMRPPRLPRPRPRPFVQPRP | -0.216
8 | RRIRMRPPRLPRPRPRPFWWPRP | 0.158
9 | RRIRMRPPRLPRPRPRPFYEPRP | 0.027
10 | RRIRMRPPRLPRPRPRPGAWPRP | 0.122
11 | RRIRMRPPRLPRPRPRPGDCPRP | 0.548
12 | RRIRMRPPRLPRPRPRPGDGPRP | 0.864
13 | RRIRMRPPRLPRPRPRPGEGPRP | 1.23
14 | RRIRMRPPRLPRPRPRPGFQPRP | 0.151
15 | RRIRMRPPRLPRPRPRPGFVPRP | 0.449
16 | RRIRMRPPRLPRPRPRPGGRPRP | 1.04
17 | RRIRMRPPRLPRPRPRPGGYPRP | 0.0413
18 | RRIRMRPPRLPRPRPRPGHWPRP | 0.263
19 | RRIRMRPPRLPRPRPRPGKLPRP | 0.515
20 | RRIRMRPPRLPRPRPRPGKTPRP | 0.769
21 | RRIRMRPPRLPRPRPRPGLLPRP | 0.251
22 | RRIRMRPPRLPRPRPRPGMHPRP | 0.186

Row | Sequence | shrunken log2 fold change
23 | RRIRMRPPRLPRPRPRPGMKPRP | 0.282
24 | RRIRMRPPRLPRPRPRPGNTPRP | -0.246
25 | RRIRMRPPRLPRPRPRPGPEPRP | 0.797
26 | RRIRMRPPRLPRPRPRPGPKPRP | 1.81
27 | RRIRMRPPRLPRPRPRPGQHPRP | 0.406
28 | RRIRMRPPRLPRPRPRPGQRPRP | 1.08
29 | RRIRMRPPRLPRPRPRPGRSPRP | 0.303
30 | RRIRMRPPRLPRPRPRPGSIPRP | 0.239
31 | RRIRMRPPRLPRPRPRPGSQPRP | 0.926
32 | RRIRMRPPRLPRPRPRPGTIPRP | 0.228
33 | RRIRMRPPRLPRPRPRPGWKPRP | 0.0184
34 | RRIRMRPPRLPRPRPRPGYFPRP | 0.0909
35 | RRIRMRPPRLPRPRPRPGYNPRP | -0.282
36 | RRIRMRPPRLPRPRPRPHAVPRP | 0.353
37 | RRIRMRPPRLPRPRPRPHDEPRP | -0.0018
38 | RRIRMRPPRLPRPRPRPHFWPRP | 0.774
39 | RRIRMRPPRLPRPRPRPHGHPRP | 0.256
40 | RRIRMRPPRLPRPRPRPHGSPRP | 0.0248
41 | RRIRMRPPRLPRPRPRPHLDPRP | 0.108
42 | RRIRMRPPRLPRPRPRPHLKPRP | 0.253
43 | RRIRMRPPRLPRPRPRPHLRPRP | 0.0326
44 | RRIRMRPPRLPRPRPRPHMFPRP | -0.222

Row | Sequence | shrunken log2 fold change
45 | RRIRMRPPRLPRPRPRPHNLPRP | -0.0351
46 | RRIRMRPPRLPRPRPRPHPPPRP | 1.26
47 | RRIRMRPPRLPRPRPRPHPWPRP | 0.227
48 | RRIRMRPPRLPRPRPRPHQSPRP | -0.318
49 | RRIRMRPPRLPRPRPRPHRFPRP | -0.0727
50 | RRIRMRPPRLPRPRPRPHRHPRP | -0.344
51 | RRIRMRPPRLPRPRPRPHRPPRP | 0.066
52 | RRIRMRPPRLPRPRPRPHRVPRP | -0.0492
53 | RRIRMRPPRLPRPRPRPHTTPRP | -0.0908
54 | RRIRMRPPRLPRPRPRPHVRPRP | 0.231
55 | RRIRMRPPRLPRPRPRPHWLPRP | -0.183
56 | RRIRMRPPRLPRPRPRPIFTPRP | -0.0423
57 | RRIRMRPPRLPRPRPRPIGAPRP | 0.739
58 | RRIRMRPPRLPRPRPRPIGNPRP | 0.13
59 | RRIRMRPPRLPRPRPRPIGVPRP | 0.0547
60 | RRIRMRPPRLPRPRPRPIHKPRP | 0.0536
61 | RRIRMRPPRLPRPRPRPIIMPRP | -0.46
62 | RRIRMRPPRLPRPRPRPIKGPRP | -0.0612
63 | RRIRMRPPRLPRPRPRPIKIPRP | -0.0554
64 | RRIRMRPPRLPRPRPRPIKKPRP | 0.0441
65 | RRIRMRPPRLPRPRPRPIMAPRP | -0.0196
66 | RRIRMRPPRLPRPRPRPIPIPRP | 0.138

Row | Sequence | shrunken log2 fold change
67 | RRIRMRPPRLPRPRPRPIPRPRP | 0.634
68 | RRIRMRPPRLPRPRPRPIRNPRP | 0.00101
69 | RRIRMRPPRLPRPRPRPIRVPRP | 0.335
70 | RRIRMRPPRLPRPRPRPISIPRP | -0.313
71 | RRIRMRPPRLPRPRPRPISYPRP | -0.0167
72 | RRIRMRPPRLPRPRPRPIVVPRP | 0.0203
73 | RRIRMRPPRLPRPRPRPIYLPRP | -0.268
74 | RRIRMRPPRLPRPRPRPIYYPRP | -0.51
75 | RRIRMRPPRLPRPRPRPKCWPRP | 1
76 | RRIRMRPPRLPRPRPRPKDAPRP | 2.02
77 | RRIRMRPPRLPRPRPRPKEVPRP | 0.00253
78 | RRIRMRPPRLPRPRPRPKEWPRP | 0.0859
79 | RRIRMRPPRLPRPRPRPKGCPRP | -0.0257
80 | RRIRMRPPRLPRPRPRPKIRPRP | -0.0101
81 | RRIRMRPPRLPRPRPRPKKWPRP | 0.962
82 | RRIRMRPPRLPRPRPRPKLIPRP | -0.0987
83 | RRIRMRPPRLPRPRPRPKLRPRP | -0.0111
84 | RRIRMRPPRLPRPRPRPKLYPRP | 0.256
85 | RRIRMRPPRLPRPRPRPKQRPRP | 1.1
86 | RRIRMRPPRLPRPRPRPKRCPRP | 0.211
87 | RRIRMRPPRLPRPRPRPKRTPRP | 3.45
88 | RRIRMRPPRLPRPRPRPKSAPRP | 0.389

Row | Sequence | shrunken log2 fold change
89 | RRIRMRPPRLPRPRPRPKTDPRP | 1.32
90 | RRIRMRPPRLPRPRPRPKYSPRP | -0.326
91 | RRIRMRPPRLPRPRPRPLAEPRP | 3.05
92 | RRIRMRPPRLPRPRPRPLALPRP | 0.0404
93 | RRIRMRPPRLPRPRPRPLCRPRP | 0.359
94 | RRIRMRPPRLPRPRPRPLCYPRP | -0.0697
95 | RRIRMRPPRLPRPRPRPLDHPRP | 0.103
96 | RRIRMRPPRLPRPRPRPLDPPRP | 0.146
97 | RRIRMRPPRLPRPRPRPLDRPRP | 0.816
98 | RRIRMRPPRLPRPRPRPLEKPRP | 1.07
99 | RRIRMRPPRLPRPRPRPLEMPRP | 1.4
100 | RRIRMRPPRLPRPRPRPLGCPRP | 0.182
101 | RRIRMRPPRLPRPRPRPLGHPRP | 0.751
102 | RRIRMRPPRLPRPRPRPLHWPRP | 0.116
103 | RRIRMRPPRLPRPRPRPLIAPRP | 0.34
104 | RRIRMRPPRLPRPRPRPLIWPRP | 0.246
105 | RRIRMRPPRLPRPRPRPLKFPRP | 0.426
106 | RRIRMRPPRLPRPRPRPLQAPRP | 2.15
107 | RRIRMRPPRLPRPRPRPLQNPRP | 1.2
108 | RRIRMRPPRLPRPRPRPLRCPRP | 1.61
109 | RRIRMRPPRLPRPRPRPLSFPRP | 0.102
